Experimental data published in patent US20040214275.

Tests used:
[1] = target: von Willebrand factor purified from human plasma cryoprecipitate (UniProt P04275)
[2] = target: von Willebrand factor purified from human plasma cryoprecipitate, P04275

Molecule: W897stop variant of the vWF-cleaving protease (lacking the region between the C-terminus and position W897)
- vWF-cleaving activity (qualitative) [1]: a variant lacking a region between the C-terminus and the position W897 was found to have activity, although it was the result of qualitative analysis

B1: vWF-cleaving protease derived from human plasma (protein)
chain: AAGGILHLELLVAVGPDVFQAHQEDTERYVLTNLNIGAELLRDPSLGAQFRVHLVKMVILTEPEGAPNITANLTSSLLSVCGWSQTINPEDDTDPGHADLVLYITRFDLELPDGNRQVRGVTQLGGACSPTWSCLITEDTGFDLGVTIAHEIGHSFGLEHDGAPGSGCGPSGHVMASDGAAPRAGLAWSPCSRRQLLSLLSAGRARCVWDPPRPQPGSAGHPPDAQPGLYYSANEQCRVAFGPKAVACTFAREHLDMCQALSCHTDPLDQSSCSRLLVPLLDGTECGVEKWCSKGRCRSLVELTPIAAVHGRWSSWGPRSPCSRSCGGGVVTRRRQCNNPRPAFGGRACVGADLQAEMCNTQACEKTQLEFMSQQCARTDGQPLRSSPGGASFYHWGAAVPHSQGDALCRHMCRAIGESFIMKRGDSFLDGTRCMPSGPREDGTLSLCVSGSCRTFGCDGRMDSQQVWDRCQVCGGDNSTCSPRKGSFTAGRAREYVTFLTVTPNLTSVYIANHRPLFTHLAVRIGGRYVVAGKMSISPNTTYPSLLEDGRVEYRVALTEDRLPRLEEIRIWGPLQEDADIQVYRRYGEEYGNLTRPDITFTYFQPKPRQAWVWAAVRGPCSVSCGAGLRWVNYSCLDQARKELVETVQCQGSQQPPAWPEACVLEPCPPYWAVGDFGPCSASCGGGLRERPVRCVEAQGSLLKTLPPARCRAGAQQPAVALETCNPQPCPARWEVSEPSSCTSAGGAGLALENETCVPGADGLEAPVTEGPGSVDEKLPAPEPCVGMSCPPGWGHLDATSAGEKAPSPWGSIRTGAQAAHVWTPAAGSCSVSCGRGLMELRFLCMDSALRVPVQEELCGLASKPGSRREVCQAVPCPARWQYKLAACSVSCGRGVVRRILYCARAHGEDDGEEILLDTQCQGLPRPEPQEACSLEPCPPRWKVMSLGPCSASCGLGTARRSVACVQLDQGQDVEVDEAACAALVRPEASVPCLIADCTYRWHVGTWMECSVSCGDGIQRRRDTCLGPQAQAPVPADFCQHLPKPVTVRGCWAGPCVGQGTPSLVPHEEAAAPGRTTATPAGASLEWSQARGLLFSPAPQPRRLLPGPQENSVQSSACGRQHLEPTGTIDMRGPGQADCAVAIGRPLGEVVTLRVLESSLNCSAGDMLLLWGRLTWRKMCRKLLDMTFSSKTNTLVVRQRCGRPGGGVLLRYGSQLAPETFYRECDMQLFGPWGEIVSPSLSPATSNAGGCRLFINVAPHARIAIHALATNMGAGTEGANASYILIRDTHSLRTTAFHGQQVLYWESESSQAEMEFSEGFLKAQASLRGQYWTLQSWVPEMQDPQSWKGKEGT
- vWF-cleaving activity [2]: activity derived from the cryoprecipitate and the FI paste were found to cleave the peptide bond between residues Tyr 842 and Met 843
